Data published in paper PMC6009930, “Allosteric inhibition of carnosinase (CN1) by inducing a conformational shift” (Journal of Enzyme Inhibition and Medicinal Chemistry, 2017).

Substrate: NCCC(=O)N[C@@H](Cc1cnc[nH]1)C(=O)O
Experiment: OPA fluorescence assay of liberated histidine, Michaelis-Menten fit
Format: biochemical, Homo sapiens
Details: pH 7, control without thiol
From the text: OPA fluorescence assay of liberated histidine, Michaelis-Menten fit on recombinant CN1 (rCN1)

B1: recombinant CN1 (rCN1) (Homo sapiens) (protein)
chain: SSPSPPPALLEKVFQYIDLHQDEFVQTLKEWVAIESDSVQPVPRFRQELFRMMAVAADTLQRLGARVASVDMGPQQLPDGQSLPIPPVILAELGSDPTKGTVCFYGHLDVQPADRGDGWLTDPYVLTEVDGKLYGRGATDNKGPVLAWINAVSAFRALEQDLPVNIKFIIEGMEEAGSVALEELVEKEKDRFFSGVDYIVISDNLWISQRKPAITYGTRGNSYFMVEVKCRDQDFHSGTFGGILHEPMADLVALLGSLVDSSGHILVPGIYDEVVPLTEEEINTYKAIHLDLEEYRNSSRVEKFLFDTKEEILMHLWRYPSLSIHGIEGAFDEPGTKTVIPGRVIGKFSIRLVPHMNVSAVEKQVTRHLEDVFSKRNSSNKMVVSMTLGLHPWIANIDDTQYLAAKRAIRTVFGTEPDMIRDGSTIPIAKMFQEIVHKSVVLIPLGAVDDGEHSQNEKINRWNYIEGTKLFAAFFLEMAQLH
notes: FLAG-tagged, secreted by transfected CHO cells, purified from supernatant; homodimer in vitro; dinuclear Zn site
Q: Which results are given for B1?
A: Km: 800 ± 100 µM; Vmax: 0.07 µmol/min/mg
